Measurements: the supplement of paper PMC9942255
“And” between values parts separate entries of the source, which are not always exact repeats. Equal entries are not always repeated.

Test system: Bacillus subtilis DB104 (SP-AmyQ fusion secretion)
Test: AmyQ secretion efficiency, weighted average sort bin (1 = best secretion, 10 = worst) (bin number (weighted average, 1-10)); higher = lower secretion efficiency
How it was run: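 A B. subtilis DB104 library carrying amyE-integrated fusions of designed signal peptides to mature AmyQ was encapsulated at about 0.3 cells per ~65 nL alginate bead with fluorescein-starch and grown about 13 h at room temperature. Following nile red staining, occupied beads were flow-sorted as large particles into 10 equally populated bins by green/red fluorescence ratio, and the bin amplicons were Illumina-sequenced. The secretion score is the read-frequency-weighted average bin number normalised to beads per bin, leaving out low-abundance sequences.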

| Sequence | AmyQ secretion efficiency |
| --- | --- |
| MLKKIALTLCPAIVGSLLFFTAPTSAHVS | 3.63 |
| MFNRLFRVCKKKRKRMAFTLPNSVYAQKP | 7.15 |
| MMTIWIGMLAAAVLLLMVPKVSLADAA | 5.79 |
| MRHKIITFILAVVVIIIIGNMIGGGGGSEATSH | 5.06 |
| MLSMNLWISLLFALTLIFTMAFSNMSAQAAGK | 1.93 |
| MLKKIALTLCPAIVGSLLFFTAPWSAHVS | 4.74 |
| MKRVLTGSVLSLGLLVSASPAFATSP | 1.56 |
| MKRLLVSLRVWMVFLMNWVTRKRRKKAAAAVY | 5.91 |
| MIAYFGKCLLLVTIMFLGVLFGMFQANHG | 6.57 |
| MSSGTVIASILLSFLSVLSGGHHESKAFPV | 6.28 |
| MKKTIMSFVAVAALSTTAFEEDHASAKEI | 2.56 |
| MNKKYFKRRKCKRFTSALFPTFSSVTAAQG | 6.71 |
| MTTKFTALAVFLLCFMPAAVIEHTQASLL | 5.46 |
| MKKWKQTQQSGIAAAISIFVYVSTGSEK | 7.55 |
| MTMLRKIIGWILLLCIIKKKAFTVIASGKEV | 7.58 |
| MKKARRVLLSLGLVFGFSYGAGHVAEAKTK | 2.43 |
| MKKLLAAGIIGLLTVSIASPSFAASC | 1.59 |
| MRSYIKVLTMCFLGLILFVPTQTALADNS | 2.3 |
| MRSYIKVLTMCFLGLILFVRRKALADNS | 6.5 |
| MKNGGCKLVVSVTLFFSFLTIGPLAHAQNS | 3.26 |
| MPYLKRVLLLLVTGLFMSLFAVTATASCQTG | 1.26 |
| MKRIRIPMTLALGAALTIAPLSFFSAEEN | 6.31 |
| MKKVLMAFIICLSLILEDDDEEDSGAKAESV | 4.1 |
| MKKKQVMLALTAAAGLGLTALHSAPAAKEAPL | 6.66 |
| MKSCKQLIVCSLAAILLLPPEVSFAADS | 2.83 |
| MFNRLFRVCFLAALIMAFTLPNSVYNQKP | 6.82 |

| Sequence | AmyQ secretion efficiency |
| --- | --- |
| MKKKLAAGLTASAIVGTTLVVTPNEAATI | 6.96 |
| MKSKGSIMACLILFLFMIFTFINTETISAFSN | 5.32 |
| MKKAFLVFLSVVLVTTVFLVKQQESVAQNKQL | 2.89 |
| MKKRLIAPMLLSAASLAFFAMSGSAQSAAY | 5.28 |
| MKRLLVSLRVWMVFLMPDRKTAAAAVY | 6.21 |
| MGLGKKLSVAVAASFMSLSISLKRRRKRVQAAEG | 7.64 |
| MKKWMAGLFLAAAVLLCLMVPQQMQGASS | 5.46 |
| MKWMCSICCAAVLLAGGAQQAEAV | 2.93 |
| MKSCKQLIVCSLAAILLLDPQPSFAADS | 4.16 |
| MKQGKFSVFLILLLMLTLVVAPKEKAEAASD | 1.02 |
| MKKQIITATTAVVLGSTLFAGAASIQSI | 5.61 |
| MKKKQVMLALTAAAGLGLTAHSAPAAKAAPL | 2.01 |
| MKKWMAGLFLAAAVLLCLMVPQQLQGASS | 5.67 |
| MKKKLAAGLTASAIVGTTLVIVTPAEAATI | 3.35 |
| MKVLLSALLLLLFARRKSASGKKL | 7.09 |
| MTSSLIGFLVLVPALIMSGITLIEANKK | 3.95 |
| MKLWMRKTLVVLFTIVTFGLVSPPAALMAATP | 2.71 |
| MKLSVKIAGVLTVAAAAMTAKMYATFTGTFAATAKGN | 7.49 |
| MKRITINIITMFIAAAVIFLVVFTSSGTAEAAEK | 2.77 |
| MMKKLFHSTLIVLLFFSFFGVQPLHAKKQ | 2.57 |
| MKQGKFSVFLILLLMLTLVVAPKEKAEHASS | 4.93 |
| MTKKAWFLPLVCVLLISGWLAASAQTT | 6.17 |
| MRKKRVITCVMAASLTLGSLLPAGYVSAKED | 3.76 |
| MLTKRLLTIYIMLLGLIAWFPGAAQCEEK | 2.82 |
| MKKWMAGLFLAAAVLLCLMVPQQYQGASS | 6.35 |
| MKRLLVSLRVWMVFLMNWVTVGRKTAAAAVY | 5.77 |

| Sequence | AmyQ secretion efficiency |
| --- | --- |
| MKKSQYFIVFICFFVLFSVHPIAAANADS | 4.12 |
| MSSGIIVAGLAVSAVVGSSMAAAPAEAKTI | 6.57 |
| MLCVMMLLFSAIASFPVSAQYKDQ | 6.57 |
| MKKIMSAFVGMVLLTIFCFSPQASAAYD | 4.89 and 4.8 |
| MPYLKRVLLLLVTGLFMSLFAVTATASLQTG | 1.81 |
| MRKNRRGKQGTLSLGLLSFMVTPVSAASK | 7.32 |
| MLTKRLLTIYIMLLGLIDDDPGAAQAEEK | 9.93 |
| MKLKKRVSMFLVALTMCGGLFVTVIIVAKAVKT | 6.35 |
| MKKAAAVLLSLGLVFFLLTSGFSYGAGHVAEAKTK | 3.03 |
| MKNMSCKLVVSVTLFFSFLTIGPLAHDQNS | 6.5 |
| MKKARRRKAAAAVGLFTFGGVQQASAKEL | 6.73 |
| MKSKWMSGLLLVAVGFSFTQVMYHAGET | 7.02 |
| MLKRTSFVSSLFISSAVLLSILEDDDDDAHAQSA | 5.08 |
| MKKKLAAGLTASAIVGTTLVVTPKEAATI | 4.56 |
| MKLRKVLTGSVLSLGLLEKDSPAFATSP | 6.38 |
| MLKGIIRFLLVSFVLFFALSTGITGVQAAPA | 2.22 |
| MGLGKKLSVAVAASFMSLSISLPGVQCAEG | 2.75 |
| MKKKQVMLALTAAAGLGLTALHSAPATKAAPL | 3.15 |
| MKKKLAAGLTASAIVGTTLVVTPAEWATI | 7.78 |
| MKKAKRVSALTPSTTLAITAKAKEL | 7.61 |
| MMIKQCYGCKSLLVFGTTAAHAEET | 7.62 |
| MKLKSKLFVICLAAATAAGVSANAEALDF | 5.89 |
| MRFTKVVGFLSVLGLAAVFPLTASSAAQAEKA | 1.25 |
| MKQGKFSVFLILLLMLTLVVRRRKKRKAEAASS | 7.96 |
| MKKKLAAGLTASAIVGTTLVVTPREAATI | 6.83 |
| MAIIIAIIAAVIVIAALITFNVRNRSPG | 7.6 |

| Sequence | AmyQ secretion efficiency |
| --- | --- |
| MRMLWRSLALCGLALTLAPCPQAAEP | 6.73 |
| MKLKSKLLLSCLALSTVFVATTIANSPTH | 3.78 |
| MRRKRFTALAVFLLCFMPAAKIEHTQASLL | 5.25 |
| MFNRLFRVCFLAALIMAFTLPNSVYYQKP | 6.22 |
| MRSYIKVLTMCFLGLILFVPTALAAND | 2.11 |
| MTQFAITLSVLCALILLVPTLLVIPFQHNKEAGASV | 7.59 |
| MKSKGSIMACLILFSFTITTFINTETISAEED | 4.14 |
| MKKWMAGLFLAAAVLLCLMVPQQCQGASS | 2.09 |
| MKRFLIGAGVAAVILSGWFIADHQTHKQEM | 4.69 |
| MNKLKRLSMLTVMIASVFIFSSHALAARR | 2.05 |
| MRGKSAKRLSLIMLIAGFLISFSFQM | 7.38 |
| MKKLIVLLFFSFFGVQPIHAKKQ | 5.47 |
| MKLAKRVSALTPSTTLAIATVLATAKAKEL | 6.28 |
| MKRIRIPMTLALGAALTIAPLSFASKEEN | 6.64 |
| MKKRKRRNFKRFIAAFLVLALMISLVPADGLAKST | 2.45 |
| MRPVFPLILSAVLFLSCFFFGARQTEASASKR | 1.8 |
| MLFNTSFVSSLFISSAVLLSILLPSGQAHAQSA | 2.42 |
| MLKRTSFVSSLFISSAVLLSILLPSGQTHAQSA | 1.61 |
| MKKRKRRNFKRFIAAFLVLALMISLVPADCLAKST | 3.04 |
| MKQGKFSVFLILLLMLTLVVTIFAALVIAPKEKAEAASS | 3.57 |
| MKKSQYSRQSKCTFVLFSVHPIAAAAADS | 7.33 |
| MFMKHTISLLIIFLLASAVLAKPIEAHTV | 2.89 |
| MKKSQYFIVFICFFVLFSSHPDEAAAADS | 4.15 |
| MKKRITYSLLALLAVVATDSSKAKAAEA | 2.87 |
| MKRLFMKARRRLFAVVFVFAVKGAPAKAETH | 6.05 |
| MKNMSCKLVVSVTLFFSFLRKKKKKAHAQNS | 6.96 |

| Sequence | AmyQ secretion efficiency |
| --- | --- |
| MRKKRLLTIYIMLLGLIAWFPGAAQAEEK | 3.47 |
| MKWMCSICCAAVLLAGGAQAEAV | 3.54 |
| MLKRTSFVSSLFISSAVLLSILLPSGQGHAQSA | 1.31 |
| MKKSTRKYKILGALGTSYISADSS | 7.69 |
| MTKKAWFLPLVCVLLISGWLAPAASASLQTT | 3.41 |
| MKLSVKIAGVLTVAAAAMRKRKKRATAKGN | 7.22 |
| MKKAFLVFLMVVLVLMVFLTVKQQESVAQAKQL | 3.05 |
| MGLGKKLKKKKAASFMSLSISLPGVQAAEG | 7.92 |
| MKSRTIWTIILGALLVCCIAVAYTLTKSQAGASSS | 5.1 and 5.65 |
| MKQIMIFLTSFMLLAMTGQTTLAKDV | 3.1 |
| MRKKLKWLSFLLGFIILLFLFKYQASNNDS | 7.34 |
| MKWMCSICCAAVLLAGGAGQAEAV | 3.36 |
| MLKKKWMVGLLAGCLAAGGFSYNAFATSD | 4.28 |
| MMFMFLLCVMMLLFSAIASFPVSAQAKDQ | 6.02 |
| MRMLWRSLALCGLALTLAICIAQAAEP | 4.76 |
| MRFTKVVGFLSVLGLAAVFPLTAQREKA | 5.37 |
| MKKWLIIAVSLAIAIVLFMYTKGEQKAAGM | 6.98 |
| MFNRLFRMSSFIVCFLAALIMAFTLPNSVYAQKP | 1.95 |
| MRKILALFVLSLGLLSFMVTPVSAASK | 1.58 |
| MRFTKVVGFLSVLGLAAVAQAEKA | 5.78 |
| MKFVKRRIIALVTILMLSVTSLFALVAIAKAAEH | 4.46 |
| MKLAKRVSALTPSTTLAIVIFAKAKEL | 8.15 |
| MKKQIITATTAVVLGSTLFAVGAASAQSI | 2.23 |
